# Results taken from patent US20090118184A1 (UNIVERSITY OF ROCHESTER, published 2009).
# Changes are numbered by the printed parent chain. Names may count otherwise.
# T1: factor VIIIa A1/A3C1C2 dimer, wild type (human, UniProt P00451 20-391; P00451 1709-2351)
# T1 sequence 1: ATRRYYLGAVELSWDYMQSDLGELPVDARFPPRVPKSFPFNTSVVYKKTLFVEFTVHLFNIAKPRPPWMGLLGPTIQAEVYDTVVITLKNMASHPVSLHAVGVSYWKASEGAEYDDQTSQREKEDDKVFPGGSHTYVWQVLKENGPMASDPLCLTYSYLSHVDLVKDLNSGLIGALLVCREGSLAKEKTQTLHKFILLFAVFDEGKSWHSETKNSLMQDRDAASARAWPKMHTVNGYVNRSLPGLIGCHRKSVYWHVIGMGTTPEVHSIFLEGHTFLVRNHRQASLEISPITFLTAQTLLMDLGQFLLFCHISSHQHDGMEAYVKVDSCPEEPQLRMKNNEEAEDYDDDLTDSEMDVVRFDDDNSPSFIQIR
# T1 sequence 2: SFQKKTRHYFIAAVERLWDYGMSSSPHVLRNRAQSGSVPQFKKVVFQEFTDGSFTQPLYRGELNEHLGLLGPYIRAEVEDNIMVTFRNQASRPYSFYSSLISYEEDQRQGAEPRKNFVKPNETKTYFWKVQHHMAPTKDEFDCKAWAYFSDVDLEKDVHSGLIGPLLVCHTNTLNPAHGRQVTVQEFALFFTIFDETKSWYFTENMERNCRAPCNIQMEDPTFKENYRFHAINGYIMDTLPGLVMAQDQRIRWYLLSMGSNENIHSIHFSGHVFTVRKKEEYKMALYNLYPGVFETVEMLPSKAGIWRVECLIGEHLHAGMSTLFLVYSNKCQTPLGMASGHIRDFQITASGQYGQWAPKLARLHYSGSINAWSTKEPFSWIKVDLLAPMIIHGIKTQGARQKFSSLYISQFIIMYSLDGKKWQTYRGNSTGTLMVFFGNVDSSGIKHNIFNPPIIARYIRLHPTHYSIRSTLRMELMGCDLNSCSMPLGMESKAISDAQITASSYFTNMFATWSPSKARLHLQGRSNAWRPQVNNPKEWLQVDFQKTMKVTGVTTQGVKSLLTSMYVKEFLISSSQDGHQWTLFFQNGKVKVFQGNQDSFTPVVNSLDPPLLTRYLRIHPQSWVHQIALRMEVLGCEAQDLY
# B1: factor VIIIa A2 subunit, S524A (other)
# chain: SVAKKHPKTWVHYIAAEEEDWDYAPLVLAPDDRSYKSQYLNNGPQRIGRKYKKVRFMAYTDETFKTREAIQHESGILGPLLYGEVGDTLLIIFKNQASRPYNIYPHGITDVRPLYSRRLPKGVKHLKDFPILPGEIFKYKWTVTVEDGPTKADPRCLTRYYSSFVNMERDLASGLIGPLLICYKESVDQRGNQIMSDKRNVILFSVFDENRSWYLTENIQRFLPNPAGVQLEDPEFQASNIMHSINGYVFDSLQLSVCLHEVAYWYILSIGAQTDFLSVFFSGYTFKHKMVYEDTLTLFPFSGETVFMSMENPGLWILGCHNSDFRNRGMTALLKVSSCDKNTGDYYEDSYEDISAYLLSKNNAIEPR
# B2: factor VIIIa A2 subunit, Y664F (other)
# chain: B1 chain with A152S, Y292F
# B3: factor VIIIa A2 subunit, S650A (other)
# chain: B1 chain with A152S, S278A
# B4: factor VIIIa A2 subunit, T522A (other)
# chain: B1 chain with T150A, A152S
# B5: factor VIIIa A2 subunit, S654A (other)
# chain: B1 chain with A152S, S282A
# B6: factor VIIIa A2 subunit, E683A (other)
# chain: B1 chain with A152S, E311A
# B7: factor VIIIa A2 subunit, E540A (other)
# chain: B1 chain with A152S, E168A
# B8: factor VIIIa A2 subunit, N684A (other)
# chain: B1 chain with A152S, N312A
# B9: factor VIIIa A2 subunit, Y476F (other)
# chain: B1 chain with Y104F, A152S
# B10: factor VIIIa A2 subunit, R531A (other)
# chain: B1 chain with A152S, R159A
# B11: factor VIIIa A2 subunit, D696A (other)
# chain: B1 chain with A152S, D324A
# B12: factor VIIIa A2 subunit, S695A (other)
# chain: B1 chain with A152S, S323A
# B13: factor VIIIa A2 subunit, D666A (other)
# chain: B1 chain with A152S, D294A
# B14: factor VIIIa A2 subunit, N538A (other)
# chain: B1 chain with A152S, N166A
# B15: factor VIIIa A2 subunit, D519A and E665A (other)
# chain: B1 chain with D147A, A152S, E293A
# Target: T1, factor VIIIa A1/A3C1C2 dimer, wild type
# Test: cell-based or functional assay
"Factor VIIIa decay rate relative to wild type, FIXa (+)","Factor VIIIa decay rate relative to wild type, FIXa (-)","Factor VIIIa decay rate, FIXa (+) [min⁻¹]","Factor VIIIa decay rate, FIXa (-) [min⁻¹]",Binder
40.4 relative to wild type,7 relative to wild type,0.455,0.442,B1
1.31 relative to wild type,–,0.0148,–,B2
2.81 relative to wild type,–,0.0317,–,B3
2.39 relative to wild type,–,0.027,–,B4
1.28 relative to wild type,–,0.0145,–,B5
2.33 relative to wild type,–,0.0263,–,B6
0.81 relative to wild type,–,0.0091,–,B7
36.3 relative to wild type,18.8 relative to wild type,0.41,1.18,B8
1.23 relative to wild type,–,0.0139,–,B9
6.72 relative to wild type,–,0.0758,–,B10
1.05 relative to wild type,–,0.0118,–,B11
0.75 relative to wild type,–,0.0085,–,B12
4.83 relative to wild type,–,0.0545,–,B13
1.28 relative to wild type,–,0.0144,–,B14

# Target: T1, factor VIIIa A1/A3C1C2 dimer, wild type
# Test: cell-based or functional assay
# Remark: another data set of the same source
"Decay rate relative to wild type, Factor VIIIa (1.5 nM, factor IXa absent)","Decay rate, Factor VIIIa (1.5 nM factor VIIIa, factor IXa absent) [min⁻¹]",Binder
0.25 relative to wild type,0.0352,B15
